Results published in PMC6757032.

Target: pre-formed trans-SNARE complexes between V- and T-liposomes (syntaxin-1A S186C-TMR, cysteine-free SNAP-25a, synaptobrevin-2 L26C-Alexa-488) (rat), P32851
Sequence (P32851 whole entry C145A/S186C/C271A/C272A, chain 1 of 3): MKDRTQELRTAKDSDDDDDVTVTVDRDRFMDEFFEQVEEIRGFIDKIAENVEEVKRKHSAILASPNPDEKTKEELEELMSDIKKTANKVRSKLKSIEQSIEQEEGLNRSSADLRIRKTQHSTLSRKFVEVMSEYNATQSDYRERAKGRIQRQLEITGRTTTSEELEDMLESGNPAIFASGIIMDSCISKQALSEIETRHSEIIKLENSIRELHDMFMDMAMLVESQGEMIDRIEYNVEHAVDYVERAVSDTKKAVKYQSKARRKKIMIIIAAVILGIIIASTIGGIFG
Sequence (P60881 other isoform, or with tags, fused parts or gaps, stated change not applied, chain 2 of 3, further chain): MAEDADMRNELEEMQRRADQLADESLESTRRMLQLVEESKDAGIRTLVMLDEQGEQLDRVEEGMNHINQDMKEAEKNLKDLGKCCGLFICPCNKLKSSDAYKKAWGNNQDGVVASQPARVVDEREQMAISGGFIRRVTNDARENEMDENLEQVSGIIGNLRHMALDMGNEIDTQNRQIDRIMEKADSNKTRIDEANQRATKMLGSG
Sequence (P63045 other isoform, or with tags, fused parts or gaps, stated change not applied, chain 3 of 3, further chain): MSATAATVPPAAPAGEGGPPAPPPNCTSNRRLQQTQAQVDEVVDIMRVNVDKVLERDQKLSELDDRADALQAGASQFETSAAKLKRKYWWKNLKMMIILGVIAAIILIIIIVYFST

B1: full-length Bos Taurus αSNAP, P81125 1-295 (natural protein)
chain: MDNSGKEAEAMALLAEAERKVKNSQSFFSGLFGGSSKIEEACEIYARAANMFKMAKNWSAAGSAFCQAAHVHLQLQSKHDAATCFVDAGNAFKKADPQEAINCLMRAIEIYTDMGRFTIAAKHHISIAEIYETELVDIEKAIAHYEQSADYYKGEESNSSANKCLLKVAGYAAQLEQYQKAIDIYEQVGTNAMDSPLLKYSAKDYFFKAALCHFCIDMLNAKLAVQKYEELFPAFSDSRECKRIKKLLEAHEEQNVDSYTEAVKEYDSISRLDQWLTTMLLRIKKTIQGDEEDLR
modifications: here or on the partner: tetramethylrhodamine on the cysteine at residue 186 | Alexa-488 on the cysteine at residue 26
- inhibition of lipid mixing (DiD de-quenching at 37 °C) mediated by trans-SNARE complexes pre-formed between V- and T-liposomes; titration with WT αSNAP: 170 nM
